Measurements as given in patent US20090029390A1 (KOREA INSTITUTE OF SCIENCE AND TECHNOLOGY, published 2009).
Numbering of substitutions follows the chain as printed. Names may count otherwise. Ends that are not written are not given here. * marks the point of attachment. FITC = O=C1OC2(c3ccc(O)cc3Oc3cc(O)ccc32)c2ccc(NC(=S)*)cc21; Ahx = NCCCCCC(=O)O

What was measured:
[1] = target: T1, GST-p300 (truncated p300, amino acids 1-221) (Homo sapiens (Human), UniProt Q09472 300-520); assay: fluorescence polarization, labeled peptide titrated with GST-p300
T1 construct: Expressed in E. coli BL21 from pGEX-4T-1 and eluted as a GST fusion; GST was not removed; not shown: glutathione S-transferase (GST) tag encoded by the pGEX-4T-1 vector

[2] = target: T2, GST-CBP (truncated human CBP, amino acids 1-450) (human, UniProt Q92793 1-450); assay: fluorescence polarization, labeled peptide titrated with GST-CBP 0-3000 nM
T2 construct: Expressed in E. coli BL21 from pGEX-KG and eluted as a GST fusion; GST was not removed; not shown: glutathione S-transferase (GST) tag encoded by the pGEX-KG vector
Method: (§1) The binding affinity and features between the HIF-1α peptides and CBP or p300 proteins were analyzed by measuring the fluorescence polarization (FP) values that were changed by the formation of a protein-ligand complex through the interaction between the CBP or p300 proteins and the synthesized peptides that were manufactured by the method as described in above Example 1. The FP values were measured with a fluorescence spectrometer (Perkin-Elmer), which was set to have a slit width of 5 nm and a total integration time of 5 seconds. EBC Buffer (50 mM Tris and 120 mM NaCl; pH 8.0, 0.25% Nonidet P (NP)-40) was used for the binding reaction.
(§2) To compare interactions between the four peptides derived from different regions in HIF-1α C-TAD with CBP or p300, these fluorescein-labeled HIF-1α peptides were mixed with CBP proteins at varying concentrations from 0 to 3000 nM under the conditions of above Example 2-2, and then the FP (fluorescence polarization) values were measured (FIG. 2A).

[3] = target: T2, GST-CBP (truncated human CBP, amino …); assay: fluorescence polarization, 100 nM labeled peptide titrated with GST-CBP
Method: as §1, §2

[4] = target: T1, GST-p300 (truncated p300, amino acids …); assay: fluorescence polarization competition against F-HIF-1α(786-826) for GST-p300

T1 sequence (Q09472 300-520): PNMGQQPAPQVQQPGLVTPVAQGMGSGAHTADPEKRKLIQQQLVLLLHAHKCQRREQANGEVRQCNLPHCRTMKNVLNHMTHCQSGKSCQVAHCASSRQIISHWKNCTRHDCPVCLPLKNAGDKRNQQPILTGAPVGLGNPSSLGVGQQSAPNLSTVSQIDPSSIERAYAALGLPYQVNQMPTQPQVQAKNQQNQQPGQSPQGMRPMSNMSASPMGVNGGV
T2 sequence (Q92793 1-450): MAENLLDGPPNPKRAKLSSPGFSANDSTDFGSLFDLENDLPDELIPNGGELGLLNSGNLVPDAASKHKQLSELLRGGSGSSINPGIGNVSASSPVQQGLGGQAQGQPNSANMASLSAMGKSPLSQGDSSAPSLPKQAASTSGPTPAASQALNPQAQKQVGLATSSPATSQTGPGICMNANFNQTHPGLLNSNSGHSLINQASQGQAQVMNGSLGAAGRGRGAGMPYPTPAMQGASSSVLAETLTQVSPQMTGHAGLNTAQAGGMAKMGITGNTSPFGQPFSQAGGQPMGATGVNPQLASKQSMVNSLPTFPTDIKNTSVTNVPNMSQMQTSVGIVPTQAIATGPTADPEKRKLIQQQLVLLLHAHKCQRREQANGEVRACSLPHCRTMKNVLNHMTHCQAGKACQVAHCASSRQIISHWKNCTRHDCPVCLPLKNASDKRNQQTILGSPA

B1: F-HIF-1α (786-826, SEQ ID NO: 4) (peptide)
peptide: {FITC-Ahx}-SMDESGLPQLTSYDCEVNAPIQGSRNLLQGEELLRALDQVN
notes: Synthetic fluorescein-labeled peptide; also called untreated peptide
B1 was tested, and the Kd [1] was 180 nM and the Kd [2] was 175 nM.

{FITC-Ahx}-DESGLPQLTSYDCEVNAPIQGSRNLLQGEELLRAL (Synthetic fluorescein-labeled peptide) [F-HIF-1α (788-822, SEQ ID NO: 6)]: binds [1]; binds [2].

{FITC-Ahx}-SDLACRLLGQSMDESGLPQLTSYDCEVNAPIQGSRNLLQ (cysteine pairing not given here, Synthetic fluorescein-labeled peptide) [F-HIF-1α (776-814, SEQ ID NO: 5)]: no binding [1]; no binding (tested: 3000 nM) [3].

B2: F-HIF-1α (776-826, SEQ ID NO: 3) (peptide)
peptide: {FITC-Ahx}-SDLACRLLGQSMDESGLPQLTSYDCEVNAPIQGSRNLLQGEELLRALDQVN
modifications: cysteine pairing not given here
notes: Synthetic fluorescein-labeled peptide from the C-TAD of human HIF-1α
B2 showed a Kd [1] of 157 nM and a Kd [2] of 196 nM.

B3: F-HIF-1α (786-826)[C800A] (peptide)
peptide: {FITC-Ahx}-SMDESGLPQLTSYDAEVNAPIQGSRNLLQGEELLRALDQVN
notes: Position 800 counts on full-length HIF-1α
B3: binds [1].

B4: T796D HIF-1α (786-826) peptide (peptide)
peptide: SMDESGLPQLDSYDCEVNAPIQGSRNLLQGEELLRALDQVN
notes: Unlabeled recombinant peptide with GST removed by thrombin; Position counts on full-length HIF-1α; also called T796D mutant peptide
B4: binds [4].

B5: N803A HIF-1α (786-826) peptide (peptide)
peptide: B4 peptide with D11T, N18A
notes: Unlabeled recombinant peptide with GST removed by thrombin; Position counts on full-length HIF-1α; also called N803A mutant peptide
B5: binds [4].
